Source: patent US10520496B2 (priority 2015, dated 2019)
“And” between values parts separate entries of the source, which are not always exact repeats. Equal values may be shown once. “Also recorded” adds a separate entry of the source. Read-outs that look alike come from different tables or passages of the source. *: point of attachment. 5FAM = O=C1OC2(c3ccc(O)cc3Oc3cc(O)ccc32)c2ccc(C(=O)*)cc21; DABCYL = quencher, CN(C)c1ccc(/N=N/c2ccc(C(=O)*)cc2)cc1

What was measured:
[1] = target: Collagenase I (Hathewaya histolytica, UniProt Q9X721); format: biochemical, Clostridium histolyticum; conditions: for Km / Vmax: collagenase I 0.45 μg/ml; for effect of zinc on measured RFU (enzymatic cleavage): zinc salt 16.7 μM, presence or absence of CaCl2 4.14 mM, vs control and NaSO4
[2] = target: Collagenase II (Hathewaya histolytica, UniProt Q46085); format: biochemical, Clostridium histolyticum
[3] = target: Thermolysin (Bacillus thermoproteolyticus, UniProt P00800); format: biochemical; conditions: for effect of zinc on measured RFU (enzymatic cleavage): zinc salt 16.7 μM, presence or absence of CaCl2 4.14 mM, vs control and NaSO4
[4] = test system: Neutral Protease; format: biochemical, Clostridium histolyticum; conditions: for Km / Vmax: neutral protease 20 μg/ml, substrate 5-80 μM, Example 2; for effect of zinc on measured RFU (enzymatic cleavage): zinc salt 16.7 μM, presence or absence of CaCl2 4.14 mM, vs control and NaSO4
Excerpt: GraphPad Prism (GraphPad Software 6.0, La Jolla, Calif., USA) was used for analyzing the data and generating the graphs. Both non-linear Michaelis-Menten and linear Lineweaver-Burk plots were used for the enzyme kinetics study. Kinetic parameters Vmax and Km were obtained from the Michaelis-Menten model by plotting the reaction velocity at different concentration of peptide substrate. Non-linear Michaelis-Menten curves for the enzymatic reaction in the presence and absence of CaCl2 were compared using Prism. All samples were run in duplicate, and results are reported as average±standard error of the mean (SEM). One-way or two-way ANOVA analysis followed by Tukey's multiple comparisons test was used to conduct multiple variable comparisons when applicable. Differences in data were considered significant when P values were less than 0.05.

[5] = target: chymotrypsin (Bos taurus, UniProt P00766); format: biochemical
[6] = target: elastase (Sus scrofa, UniProt P00772); format: biochemical
[7] = test system: collagenase; test: Enzymes that can cleave the substrate (Table 2); format: biochemical; conditions: general statement
[8] = target: dispase (Paenibacillus polymyxa, UniProt P29148); test: Enzymes that can cleave the substrate (Table 2); format: biochemical; conditions: general statement
[9] = test system: Collagenase I/II; format: biochemical; conditions: general statement
Experimental: The cleavage sites produced by various proteases were analyzed using the known sequence of the novel protease substrate 5FAMcollagenPPT. As provided herein, the cleavage sites were determined based on the results of mass spectrometric analysis of the protease substrate 5FAMcollagenPPT peptide fragments obtained from an enzymatic reaction with various enzymes tested.
Cleavage of the novel fluorogenic protease substrate 5FAMcollagenPPT was further investigated using various proteases. After cleavage of the substrate by proteases, the resulting cleavage products of the protease substrate were specifically analyzed using matrix-assisted laser desorption/ionization (MALDI) mass spectrometry.
Next, the specific sequences of the protease substrate 5FAMcollagenPPT cleavage products were analyzed using MALDI. Briefly, each protease was incubated for 15 minutes with the protease substrate at 22° C. Buffer conditions and concentrations of the protease substrates and proteases were as described in Example 2. The uncleaved 5FAMcollagenPPT substrate has a molecular weight of 1669.8 Daltons. The molecular weights of the resulting products of the protease substrate after cleavage by various proteases are shown in Table 8 and FIG. 13.

[10] = test system: proteases listed in Table 7 except thermolysin (Collagenase I Liq, Collagenase II Liq, Collagenase NB1, Collagenase I/II, Neutral Protease NB); format: biochemical; conditions: within the first hour; almost all proteases tested except thermolysin; peptide 10 μM; protease 20 μg/mL; pH 7.5
[11] = test system: trypsin; conditions: for Enzymes that do not cleave 5FAMcollagenPPT: trypsin: general statement
[12] = target: Botulinum neurotoxin A (Clostridium botulinum, UniProt P0DPI0)
[13] = target: Botulinum neurotoxin B (Clostridium botulinum, UniProt P10844)
[14] = water
[15] = with 4.14 mM calcium, substrate 5-80 μM, Example 2
[16] = without calcium, substrate 5-80 μM, Example 2
[17] = Example 3 (FIG. 10), thermolysin 17 μg/ml
[18] = enzyme 0.3125-10 μg/mL, substrate 50 μM, Example 3
[19] = with 4.14 mM calcium, thermolysin 17 μg/ml, substrate 5-80 μM, Example 2
[20] = without calcium, thermolysin 17 μg/ml, substrate 5-80 μM, Example 2
[21] = general statement, listed as 5FAM collagenPPT

Chain of Thermolysin (P00800 233-548): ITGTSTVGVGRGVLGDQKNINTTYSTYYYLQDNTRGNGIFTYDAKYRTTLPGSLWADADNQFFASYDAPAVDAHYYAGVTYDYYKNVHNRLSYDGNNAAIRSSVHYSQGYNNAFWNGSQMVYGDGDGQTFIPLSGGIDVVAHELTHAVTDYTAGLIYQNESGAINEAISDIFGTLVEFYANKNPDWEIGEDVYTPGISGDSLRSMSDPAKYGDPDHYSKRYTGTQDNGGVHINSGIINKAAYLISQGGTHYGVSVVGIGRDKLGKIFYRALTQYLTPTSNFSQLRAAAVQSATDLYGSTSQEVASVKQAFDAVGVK
Chain of Collagenase I (Q9X721 111-1118): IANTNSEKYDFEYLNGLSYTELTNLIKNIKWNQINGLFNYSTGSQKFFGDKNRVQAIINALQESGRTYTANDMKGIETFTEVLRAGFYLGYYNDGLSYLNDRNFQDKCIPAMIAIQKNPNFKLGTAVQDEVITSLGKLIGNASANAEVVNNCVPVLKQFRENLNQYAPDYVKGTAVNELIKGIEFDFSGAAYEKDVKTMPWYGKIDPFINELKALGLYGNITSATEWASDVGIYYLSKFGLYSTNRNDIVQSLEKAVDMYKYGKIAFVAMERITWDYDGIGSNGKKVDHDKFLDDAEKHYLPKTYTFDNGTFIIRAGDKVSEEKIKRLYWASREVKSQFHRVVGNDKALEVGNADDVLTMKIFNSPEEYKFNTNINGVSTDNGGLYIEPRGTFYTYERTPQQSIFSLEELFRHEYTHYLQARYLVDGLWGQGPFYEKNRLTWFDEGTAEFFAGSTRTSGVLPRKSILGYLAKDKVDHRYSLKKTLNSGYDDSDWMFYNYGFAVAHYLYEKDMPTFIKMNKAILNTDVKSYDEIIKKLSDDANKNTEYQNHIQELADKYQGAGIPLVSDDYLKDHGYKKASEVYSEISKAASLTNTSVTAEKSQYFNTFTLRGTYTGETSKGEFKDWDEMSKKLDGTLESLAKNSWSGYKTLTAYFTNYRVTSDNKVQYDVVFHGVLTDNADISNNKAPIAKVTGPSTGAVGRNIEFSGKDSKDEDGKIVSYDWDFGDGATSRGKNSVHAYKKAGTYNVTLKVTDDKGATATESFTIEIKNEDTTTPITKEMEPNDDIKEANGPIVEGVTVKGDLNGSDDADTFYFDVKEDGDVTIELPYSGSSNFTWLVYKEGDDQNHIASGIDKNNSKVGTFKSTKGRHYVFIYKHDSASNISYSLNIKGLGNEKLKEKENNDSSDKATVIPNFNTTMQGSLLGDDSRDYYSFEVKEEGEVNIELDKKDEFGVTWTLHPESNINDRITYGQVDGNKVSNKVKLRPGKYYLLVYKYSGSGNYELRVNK
Chain of dispase (P29148 287-590): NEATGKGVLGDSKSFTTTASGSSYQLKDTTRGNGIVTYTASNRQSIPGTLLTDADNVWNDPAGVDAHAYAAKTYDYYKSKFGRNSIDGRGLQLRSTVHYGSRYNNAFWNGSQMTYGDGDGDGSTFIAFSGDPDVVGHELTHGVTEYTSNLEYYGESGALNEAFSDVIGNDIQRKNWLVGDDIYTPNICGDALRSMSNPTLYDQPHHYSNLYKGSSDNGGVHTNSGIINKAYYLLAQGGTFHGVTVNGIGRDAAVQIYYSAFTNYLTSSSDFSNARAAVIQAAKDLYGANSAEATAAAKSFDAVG
Chain of elastase (P00772 27-266): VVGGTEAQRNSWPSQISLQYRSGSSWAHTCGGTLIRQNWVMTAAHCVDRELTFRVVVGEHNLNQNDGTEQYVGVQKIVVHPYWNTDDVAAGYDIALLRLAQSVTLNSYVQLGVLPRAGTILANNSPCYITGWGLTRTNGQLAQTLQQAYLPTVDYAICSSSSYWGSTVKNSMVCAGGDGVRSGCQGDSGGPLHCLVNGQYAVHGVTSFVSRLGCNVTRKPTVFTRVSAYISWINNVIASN

Compound: 5-FAM-Ala-Gly-Gly-Pro-Leu-Gly-Pro-Pro-Gly-Pro-Gly-Gly-Lys-[DABCYL]-amide (5FAM-AGGPLGPPGPGGK(DABCYL)-NH2; SMILES CC(C)C[C@H](NC(=O)[C@@H]1CCCN1C(=O)CNC(=O)CNC(=O)[C@H](C)NC(=O)c1ccc2c(c1)C(=O)OC21c2ccc(O)cc2Oc2cc(O)ccc21)C(=O)NCC(=O)N1CCC[C@H]1C(=O)N1CCC[C@H]1C(=O)NCC(=O)N1CCC[C@H]1C(=O)NCC(=O)NCC(=O)N[C@@H](CCCCNC(=O)c1ccc(/N=N/c2ccc(N(C)C)cc2)cc1)C(N)=O) [5FAMcollagenPPT]
- Km ([1]; Example 3 (FIG. 10)): 28.2 µM
- Vmax ([1]; Example 3 (FIG. 10)): 909 RFU/min/μg
- Enzymes that can cleave 5FAMcollagenPPT: collagenase I (class I) ([1]; general statement): shown to cleave; also recorded: cleaved
- effect of pH on enzymatic cleavage activity ([1]; pH 6.8, 7.0, 7.5, 8.0, substrate 20 μM): influenced by pH except Collagenase I
- Km [1, 15]: 32.9 µM
- Vmax [1, 15]: 1008.158 RFU/min/μg
- Km [1, 16]: 38.1 µM
- Vmax [1, 16]: 1704.72 RFU/min/μg
- Enzymes that can cleave 5FAMcollagenPPT: collagenase II (class II) [2]: shown to cleave; also recorded: cleaved
- Km [2]: 29.7 µM and 24.1 µM and 24.5 µM
- Vmax [2]: 3354.43 RFU/min/μg and 3243.942 RFU/min/μg and 5000 RFU/min/μg
- effect of pH on enzymatic cleavage activity [2]: significantly inhibited
- Km [3, 17]: 34.6 µM
- Vmax [3, 17]: 24.6 RFU/min/μg
- specificity of substrate for thermolysin, dose response (FIG. 11) [3, 18]: highly specific
- cleavage of substrate by thermolysin (FIG. 9) ([3]; enzyme 2.5, 5, 10 μg/ml, substrate 50 μM, with and without 4.14 mM CaCl2): dose-dependent cleavage; also recorded: cleaved
- Enzymes that can cleave 5FAMcollagenPPT: thermolysin ([3]; general statement): cleaved by thermolysin; also recorded: shown to cleave; also recorded: cleavable by thermolysin
- effect of pH on enzymatic cleavage activity ([3]; pH 8.0 compared to all other pH conditions, substrate 20 μM): significantly inhibited
- Km [3, 19]: 24.8 µM
- Vmax [3, 19]: 25.47 RFU/min/μg
- Km [3, 20]: 30.4 µM
- Vmax [3, 20]: 23.7 RFU/min/μg
- effect of pH on enzymatic cleavage activity ([4]; between pH 7.0 and pH 8.0, substrate 20 μM): significant difference
- Km ([4]; with 4.14 mM calcium): 45.1 µM
- Vmax ([4]; with 4.14 mM calcium): 29.28 RFU/min/μg
- Km ([4]; without calcium): 74.1 µM
- Vmax ([4]; without calcium): 20.04 RFU/min/μg
- cleavage of substrate by chymotrypsin, dose response (FIG. 11) [5, 18]: do not cleave
- Enzymes that do not cleave 5FAMcollagenPPT: chymotrypsin [5, 21]: chymotrypsin
- cleavage of substrate by elastase, dose response (FIG. 11) [6, 18]: do not cleave
- Enzymes that do not cleave 5FAMcollagenPPT: elastase [6, 21]: elastase
- Enzymes that can cleave 5FAMcollagenPPT: collagenase [7]: collagenase-specific
- Enzymes that can cleave 5FAMcollagenPPT: dispase [8]: cleaved; also recorded: dispase
- Enzymes that can cleave 5FAMcollagenPPT: class I/II collagenase [9]: cleaved
- cleavage of substrate over time (FIG. 12) [10]: efficient cleavage
- cleavage of substrate by trypsin, dose response (FIG. 11) [11, 18]: do not cleave
- cleavage of substrate by trypsin (FIG. 9) ([11]; enzyme 2.5, 5, 10 μg/ml, substrate 50 μM, with and without 4.14 mM CaCl2, compared to thermolysin): significantly diminished reactivity; also recorded: not cleaved
- Enzymes that do not cleave 5FAMcollagenPPT: trypsin [11]: not degraded; also recorded: resistant to trypsin; also recorded: resistant to cleavage
- Enzymes that do not cleave 5FAMcollagenPPT: trypsin ([11]; listed as 5FAM collagenPPT): trypsin
- Enzymes that can cleave 5FAMcollagenPPT: Botulinum neurotoxin A [12]: Botulinum neurotoxin A and B
- Enzymes that can cleave 5FAMcollagenPPT: Botulinum neurotoxin B [13]: Botulinum neurotoxin A and B
- solubility [14]: water soluble

Compound: [Ca+2].[Cl-].[Cl-] [CaCl2, reference compound]
- effect of CaCl2 on the cleavage reaction (Michaelis-Menten curves) ([1]; CaCl2 4.14 mM, Collagenase I 0.45 μg/ml, substrate 5FAMcollagenPPT 5-80 μM): significantly enhanced
- effect of CaCl2 on the cleavage reaction (Michaelis-Menten curves) [2]: did not change significantly
- effect of CaCl2 on the cleavage reaction (Michaelis-Menten curves) ([3]; CaCl2 4.14 mM, Thermolysin 17 μg/ml, substrate 5FAMcollagenPPT 5-80 μM): did not change significantly
- effect of CaCl2 on the cleavage reaction (Michaelis-Menten curves) ([4]; CaCl2 4.14 mM, Neutral Protease 20 μg/ml, substrate 5FAMcollagenPPT 5-80 μM): significantly enhanced

Compound: O=C(O)CN(CCOCCOCCN(CC(=O)O)CC(=O)O)CC(=O)O [EGTA, ethylene glycol-bis(β-aminoethyl ether)-N,N,N′,N′-tetraacetic acid, reference compound]
- effect of EGTA on RFU levels vs controls [2]: significant differences
- effect of EGTA on RFU levels vs controls ([3]; EGTA 25, 50, 100 mM, thermolysin 17 μg/ml, substrate 20 μM): significant differences

Compound: [Cl-].[Cl-].[Zn+2] [ZnCl2, reference compound]
- effect of zinc on measured RFU (enzymatic cleavage) ([1]; substrate 20 μM): significantly decreased
- effect of zinc on measured RFU (enzymatic cleavage) [2]: significantly decreased
- effect of zinc on measured RFU (enzymatic cleavage) ([3]; substrate 20 μM): significantly decreased
- effect of zinc on measured RFU (enzymatic cleavage) ([4]; substrate 20 μM): significantly decreased

Compound: O=S(=O)([O-])[O-].[Zn+2] [ZnSO4, reference compound]
- effect of zinc on measured RFU (enzymatic cleavage) ([1]; substrate 20 μM): significantly decreased
- effect of zinc on measured RFU (enzymatic cleavage) [2]: significantly decreased
- effect of zinc on measured RFU (enzymatic cleavage) ([3]; substrate 20 μM): significantly decreased
- effect of zinc on measured RFU (enzymatic cleavage) ([4]; substrate 20 μM): significantly decreased
